Tests used:
[1] = target: Asp217 (UniProt position 217, GFSFLDLHGLR); experiment: IR (time-resolved FTIR, quoted from ref 74); conditions: Unphotolysed ASR; the protonation state of Asp217 is inferred from whether it accepts a proton on M formation; cited from earlier work
[2] = target: Glu36 (UniProt position 36, GVPQYEYLVAM); experiment: IR (low-temperature light-induced difference FTIR); conditions: 170 K, 2 mM sodium phosphate (pH 7.0) for washing liposomes

Substance | pKa [1] | pKa ([2]; buffers for pH 5 and 9 not stated, Dark-adapted ASR (97% all-trans retinal), unphotolysed state versus L intermediate formed by >580 nm illumination) | pKa ([2]; not stated for pH 5 and 9, Dark-adapted ASR (predominantly all-trans), unphotolysed state bands in the L minus ASR difference spectrum)
Anabaena sensory rhodopsin (ASR), as studied by Shi et al. 2006 (Anabaena (Nostoc) sp. PCC 7120) | between 6 and 7 |  | 
Anabaena sensory rhodopsin (ASR) (Anabaena (Nostoc) sp. PCC 7120) |  | between 6 and 7 | about 7
